{"source": "the nanobody polyreactivity screen of Harvey et al. (2022)", "data": [{"experiment": "yeast display, Sf9 membrane polyspecificity reagent, FACS + sequencing; frameworks hold sequencing errors", "in_short": "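Galactose-induced (36–48 hours) yeast carrying a synthetic nanobody display library were exposed to 10% biotinylated, detergent-solubilized Sf9 membrane reagent at 4 °C for 1 hour. FACS followed streptavidin microbead enrichment, using low and high (top ~1%) gates for expression (anti-HA) and reagent binding (streptavidin). Colony PCR, MiSeq 2 × 250 sequencing and CDR-length filtering followed. Labels for polyreactivity reflect the gate of origin.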", "values": [{"sequence": "QVQLVESGGGLVQAGGSLRLSCAASGRIFVKNAMGWYRQAPGKERELVAAISSSSGSTYYADSVKGRFTISRDNAKNTVYLQMNSLKPEDTAVYYCATVRWYYSRPRPTTAYGYWGQGTQVNVSS", "polyreactivity (PSR sort gate)": "high polyreactivity"}, {"sequence": "QVQLVESGGGLVQAGGSLRLSCAASGRIFVKYAMGWYRQAPGKERELVAGISRSVGSTYYADSVKGRFTISRDNAKNTVYLQMNSLKPEDTAVYYCATRQKRVGYYYWGQGTQVTVSS", "polyreactivity (PSR sort gate)": "high polyreactivity"}, {"sequence": "QVQLVESGGGLVQAGGSLRLSCAASGRIFVNNAKGWYRPAPGKERELVAAISRGASTYYADSVKGRFTISRDNAKNTVYLQLNSLKAEDTAVYYGNARTDAYGASEMGYWGQGTQVTVSS", "polyreactivity (PSR sort gate)": "high polyreactivity"}, {"sequence": "QVQLVESGGGLVQAGGSLRLSCAASGRIFVNNAMGWYRQAPGKERELVAAITGRGTRTYYADSVKGRFTISRDNAKNTVYLQMNSLKPEDTADYYCNAVSTAVIGYEYDYWGQGTQVTVSS", "polyreactivity (PSR sort gate)": "high polyreactivity"}, {"sequence": "QVQLVESGGGLVQAGGSLRLSCAASGRIFVPYVMGWYRQAPGKDRELVASISDSDTSTYYADSVKGRFTISRDNAKNNVYLQMNSMKPEDTAVYYCNVDYWGQGTQVTVSS", "polyreactivity (PSR sort gate)": "low polyreactivity"}, {"sequence": "QVQLVESGGGLVQAGGSLRLSCAASGRIFVQNAMGWYRQAPGKERELVAAINWSVGSTYYADSVKGRFTISRDNAKNTVYLQMNSLKPEDTAVYYCAAGNLYYAEYDYWGQGTQVTVSS", "polyreactivity (PSR sort gate)": "low polyreactivity"}, {"sequence": "QVQLVESGGGLVQAGGSLRLSCAASGRIFVRYAMGWYRQAPGKEREWVAVSTTGGARTRDADSVKGRFTISRDNAKNSVYLQMNSLKPEDTGVYYCAAQTYSQRWYDYWGQGTQVTVSS", "polyreactivity (PSR sort gate)": "high polyreactivity"}, {"sequence": "QVQLVESGGGLVQAGGSLRLSCAASGRIFVSHAMGWYRQAPGKERALVAGITWTSGSTYYADSVKGRFTISRDNAKNTVYLQMKSLKPEDTAVYYCAAEYWYGNAFDYWGLGTQVTVSS", "polyreactivity (PSR sort gate)": "low polyreactivity"}, {"sequence": "QVQLVESGGGLVQAGGSLRLSCAASGRIFVSNAMGWYRQAPGKERELVAAISKSGGRTYYADSVKGRFTISRDNAKNTVYLQMNSLKPEDTAVYYCNAVISLPGNKYDYWGQGTQVTVSS", "polyreactivity (PSR sort gate)": "high polyreactivity"}, {"sequence": "QVQLVESGGGLVQAGGSLRLSCAASGRIFVSYAMGWYRQAPGKERELVAAISNSGSRTYYADSVKGRFTISRDNAKNTVYLQMNSLKPEDTAVYYCAAGQGAGVDYWGQGTQVTVSS", "polyreactivity (PSR sort gate)": "high polyreactivity"}, {"sequence": "QVQLVESGGGLVQAGGSLRLSCAASGRIFVSYTMGWYRQAPGKERELVAAIRGTGSTYYADSVKGRFTISRDNAKNTVYLQMNSLKPEDTAVYYCNADYLRWDIWYWHGYDYWGQGTQVTVSS", "polyreactivity (PSR sort gate)": "high polyreactivity"}, {"sequence": "QVQLVESGGGLVQAGGSLRLSCAASGRIFVSYVMGWYRPAPGKEREFVAAIRRSGSSTYYADSVKGRFTISRDNAKNTVYLQINRLKPEDTAVYYCAAYQRSRTLRRYDYWGQGTQVTVSS", "polyreactivity (PSR sort gate)": "high polyreactivity"}, {"sequence": "QVQLVESGGGLVQAGGSLRLSCAASGRIFVTNAMGWYRQAPGKERELVAAISYRGGRTYYADSVKGRFTISRDNAKNTVYLQMNSLKPEDTAVYYCNAVTRWPFDYWGQGTQVTVSS", "polyreactivity (PSR sort gate)": "high polyreactivity"}, {"sequence": "QVQLVESGGGLVQAGGSLRLSCAASGRIFVTNTMGWYRQAPGKERELVAAIDNSAGSTYYADSVKGRFTISRDNAKNTVYLQMNSLKPEDTAVYYCAADYPPYYGYGYWGQGTQVTVSS", "polyreactivity (PSR sort gate)": "low polyreactivity"}, {"sequence": "QVQLVESGGGLVQAGGSLRLSCAASGRIFVVYAMGWYRQAPGKERELVAAITYGGGSTHYADSVKGRFTISRDNAKNTVYLQMNSLKPEDTAVYYCAADLFYHSYGYEYWGQGTQVTVSS", "polyreactivity (PSR sort gate)": "low polyreactivity"}, {"sequence": "QVQLVESGGGLVQAGGSLRLSCAASGRIFVVYVMGWYRQAPGKEREFVAAITWGGGNTYYADSVKGRFTISRDNAKNTVYLQMNSLIPEDTAVYYCAAAPRKYVWMDYWGQGTQVTVSS", "polyreactivity (PSR sort gate)": "low polyreactivity"}]}]}
